Measurements: patent US20130190477A1 (REGENTS OF THE UNIVERSITY OF COLORADO, published 2013)

Assays:
[1] = molecular target: T1, EBV gp350, truncated construct comprising residues 1-470 of the wild-type protein, C-terminal polyhistidine … (Epstein-Barr virus, UniProt P03200 1-470); assay: NMR titration, upper limit from slow exchange (min. shift difference about 60 Hz, diffusion-limited on rate assumed)
T1 construct: range 1-470; Produced in Sf9 insect cells by baculovirus; The methods say truncated 1-470, yet the results and discussion call the titrated ligand 'full-length'; also called Epstein-Barr virus glycoprotein gp350/220; not shown: C-terminal polyhistidine tag
T1 sequence: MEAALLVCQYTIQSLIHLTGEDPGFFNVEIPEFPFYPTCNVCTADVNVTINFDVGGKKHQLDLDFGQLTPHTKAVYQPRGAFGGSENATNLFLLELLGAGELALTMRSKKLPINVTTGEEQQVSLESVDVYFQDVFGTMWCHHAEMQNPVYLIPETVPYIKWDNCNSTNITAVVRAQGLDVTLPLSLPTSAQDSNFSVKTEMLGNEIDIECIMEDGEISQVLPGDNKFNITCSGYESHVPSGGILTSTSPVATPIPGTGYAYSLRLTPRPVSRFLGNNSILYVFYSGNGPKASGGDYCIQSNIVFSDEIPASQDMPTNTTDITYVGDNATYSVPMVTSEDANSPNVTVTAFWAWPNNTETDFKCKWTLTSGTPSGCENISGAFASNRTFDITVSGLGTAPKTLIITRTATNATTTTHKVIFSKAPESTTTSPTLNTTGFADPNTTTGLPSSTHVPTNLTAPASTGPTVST

[2] = molecular target: T2, Human C3d (human, UniProt P01024 996-1303, limits assumed); assay: ITC, 20 °C, 1/3x PBS, two site binding model (tight site)
T2 construct: domain: C3d; also called complement component 3 proteolytic fragment C3d
Experimental: (§1) ITC experiments were carried out on a Microcal VP-ITC (GE Healthcare, Piscataway, N.J.) housed in the Biophysics Core facility on the UCDSOM campus. […] Data was analyzed using the software provided by the manufacturer (Origin, version 7.0 MicroCal) using either single site or two site binding models (55).

[3] = molecular target: T2, Human C3d; assay: ITC, 20 °C, 1/3x PBS, two site binding model (weak site)
Experimental: as §1

[4] = molecular target: T1, EBV gp350, truncated construct …; assay: ITC, 20 °C, 1/3x PBS, single site binding model

T2 sequence (P01024 996-1303 limits assumed): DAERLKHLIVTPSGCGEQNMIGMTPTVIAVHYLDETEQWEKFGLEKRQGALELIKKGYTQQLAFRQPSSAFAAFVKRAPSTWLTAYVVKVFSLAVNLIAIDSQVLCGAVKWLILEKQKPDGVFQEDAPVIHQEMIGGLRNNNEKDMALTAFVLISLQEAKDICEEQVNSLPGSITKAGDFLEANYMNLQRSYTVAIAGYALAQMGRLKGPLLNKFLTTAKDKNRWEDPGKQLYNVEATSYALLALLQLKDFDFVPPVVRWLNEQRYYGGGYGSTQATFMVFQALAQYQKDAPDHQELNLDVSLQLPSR

B1: Human CR2 SCR1-2 (short consensus repeat domains 1 and 2 of human complement receptor 2) (receptor)
chain: ISCGSPPPILNGRISYYSTPIAVGTVIRYSCSGTFRLIGEKSLLCITKDKVDGTWDKPAPKCEYFNKYSSCPEPIVPGGYKIRGSTPYRHGDSVTFACKTNFSMNGNKSVWCQANNMWGPTRLPTCVS
notes: The ITC paragraph says only 'CR2 SCR1-2', so it is not clear which preparation gave the ITC values; also called CR2/CD21 SCR1-2; SCR1-2 domains of CR2
Work on B1 yielded a Kd [1] of no more than 60000 nM, a Kd [2] of 130 nM and a Kd [3] of 160000 nM. For the same binder, the Kd [4] was 14 nM.
